Key:
[1] = Phase I pharmacokinetics, single 30-min IV infusion, ELISA; format: in vivo, human
Procedure: REGN421 is currently being studied in a first-in-human trial. The primary objective of the study is to determine the recommended dose of REGN421 for future efficacy trials. The secondary objectives are to characterize the drug safety profile, its pharmacokinetics, immunogenicity, and pharmacodynamics, as well as preliminary evidence of efficacy. In this study, anti-hDll4 antibody REGN421 is administered intravenously every 3 weeks to patients whose cancer has progressed on conventional therapy. The study design follows standard methodology for dose escalation and definition of dose-limiting toxicity. To date, 7 patients have been treated at 0.25 mg/kg/dose every three weeks, and 6 patients have been treated at 0.50 mg/kg/dose every three weeks. For the pharmacokinetic study, blood samples were taken at pre-dose, 0 hour, and post-dose 1, 2, 4 and 8 hours on Day 1, followed by Days 2, 3, 4, 8 and 15 of Cycle 1; and pre-dose, 0 hour on Day 1 of Cycles 2, and post-treatment follow-up on Days 15, 30 and 60. Plasma/serum levels of REGN421 in the samples are measured by ELISA with an upper limit of quantification of 2.5 μg/mL and a lower limit of quantification of 0.039 μg/mL in the undiluted serum sample. The study is ongoing with the intent to administer higher doses, defined in the protocol as 1, 2, 4, and 7 mg/kg/dose.
The currently available data showing plasma pharmacokinetic parameters following single 30-min. Cmax: Maximum serum concentration of the drug; Tlast: Time to the last quantifiable concentration of the drug; Clast: Last quantifiable concentration of the drug; AUClast: Area under curve up to the last concentration of the drug; AUC: Total area under the curve (i.e., drug exposure); t1/2Z: Terminal half life; Vss: Volume of distribution at steady state; CL: Drug clearance rate. Values are: mean, (CV %), and [range] (a: median [range]).

[2] = system: Hey1 gene expression in Colo205 human colorectal tumor cells; test: Hey1 gene expression in Colo205 tumors in humanized Dll4 SCID mice (microarray); format: in vivo
Procedure: The effect of anti-hDll4 antibody on differential gene expression in tumors was studied in humanized Dll4 SCID mice implanted with human Colo205 colorectal tumor cells. Briefly, Male and female humanized Dll4 SCID mice were subcutaneously implanted with 2×10^6 Colo205 cells per mouse. When the tumors reached ˜150 mm^3, mice (4 animals per group) were treated with a single dose of REGN421 at 0.5, 5 or 15 mg/kg, or of hFc control at 15 mg/kg. The tumors were excised at 5 hrs, 10 hrs, 24 hrs, 72 hrs and 7 days after the treatment and stored in RNA later stabilization reagent (Qiagen). Tumor RNA was purified using the RNeasy® Midi Kit (Qiagen). Tissue was homogenized in lysis buffer containing […] in a mixer mill, loaded onto the columns and unbound contaminants washed through. DNase I digestion was performed on the column and RNA was eluted in RNase-free water. Cyanine 3 (Cy3)-CTP was incorporated into amplified cRNA from 500 ng of total RNA using the Quick Amp™ RNA Amplification Kit (Agilent Technologies). Cy3-labeled cRNA from each sample was then hybridized to a custom array covering both the mouse and human transcriptome. The hybridization and wash of the arrays were performed according to the manufacture's protocol and arrays were scanned on an Agilent Microarray scanner. The data were extracted from scanned array images using the Agilent Feature Extraction Software 9.5. […]

human HCT116 tumor cells = test: Growth of human HCT116 tumors in humanized Dll4 SCID mice (irinotecan study); format: in vivo; details: REGN421 2 mg/kg sc (6 mg/kg total)
Procedure: Each mouse was implanted subcutaneously (sc) with 5×10^6 human HCT116 tumor cells. […] The mice were then treated with hFc, REGN421, irinotecan or combination of REGN421 and irinotecan. A total of 30 mice were divided into 6 groups (n=5 per cohort). The first group was treated sc with hFc at 2 mg/kg; the second group was treated sc with REGN421 at 2 mg/kg; the third and fourth groups were treated ip with irinotecan at 7.5 and 25 mg/kg, respectively; the fifth group was treated sc with REGN421 at 2 mg/kg and ip with irinotecan at 7.5 mg/kg; and the sixth group was treated sc with REGN421 at 2 mg/kg and ip with irinotecan at 25 mg/kg. REGN421 was administered every 3-4 days starting on day 15 and mice received three doses total. Irinotecan was administered every 3-4 days starting on day 15 and mice received three doses total.
To assess the effects of REGN421 and irinotecan as single agents or in combination treatments, the changes in tumor size (volume) are measured, starting three days before the initial REGN421 treatment, and then on the day of each agent treatment (days 15, 19, 22) and thereafter every 3-4 days until tumors reach ˜600 mm^3 in size. In vivo tumor size is calculated using the formula (length×width^2)/2.

B1: REGN421 (antibody, V domains shown)
VH: QVQLVESGGGVVQPGRSLRLSCAASGFTFSSYGMHWVRQAPGKGLEWVSFLWYDGTNKNYVESVKGRFTISRDNSKNMLYLEMNSLRAEDTAVYYCARDHDFRSGYEGWFDPWGQGTLVTVSS
VL: EIVLTQSPATLSLSPGERATLSCRASQSVSSYLAWYQQKPGQAPRLLIYDASNRATGIPARFSGSGSGTDFTLTISSLEPEDFAVYYCQHRSNWPPTFGGGTKVEIK
[1]; 0.25 mg/kg IV, n = 7, mean
  AUC: 489 µg·h/mL
  AUClast: 452 µg·h/mL
  CL: 0.0473 L/h
  Cmax: 6.27 µg/mL
  T1/2Z: 47.1 h
  Vss: 2.85 L
[1]; 0.25 mg/kg IV, n = 7, median
  Tlast: 170 h
[1]; 0.5 mg/kg IV, n = 2, mean
  AUC: 963 µg·h/mL
  AUClast: 759 µg·h/mL
  CL: 0.0355 L/h
  Clast: 2.24 µg/mL
  Cmax: 9.88 µg/mL
  T1/2Z: 92.3 h
  Vss: 3.64 L
[1]; 0.5 mg/kg IV, n = 2, median
  Tlast: 203 h
[2]; single dose 0.5 mg/kg (lowest dose)
  Hey1 mRNA levels compared to control hFc-treated mice: No significant decrease
[2]; single dose REGN421, starting at 10 hours, most significantly at 72 hours and 7 days post-treatment
  Hey1 mRNA levels compared to control hFc-treated mice: decreased
Human HCT116 tumor cells
  TGD: 9 days
  TGI(%) at Day 39: 81.3%
